Test results from patent publication US20250019437A1.

T1: human TREM2 (triggering receptor expressed on myeloid cells 2) (human) (UniProt Q9NZC2)
T1 sequence (looked up): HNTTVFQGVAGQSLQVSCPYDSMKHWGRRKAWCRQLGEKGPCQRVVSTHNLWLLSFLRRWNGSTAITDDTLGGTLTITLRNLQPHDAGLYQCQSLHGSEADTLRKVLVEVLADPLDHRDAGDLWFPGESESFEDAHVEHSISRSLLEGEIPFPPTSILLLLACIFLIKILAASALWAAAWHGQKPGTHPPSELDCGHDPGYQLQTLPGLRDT


Assays:
[1] = biological target: T1, human TREM2 (triggering receptor expressed on myeloid cells 2) (human); test: 2nd screen, 10 nM Ab
[2] = biological target: T1, human TREM2 (triggering receptor expressed on myeloid cells 2) (human); test: 2nd screen, 2 nM Ab
[3] = biological target: T1, human TREM2 (triggering receptor expressed on myeloid cells 2) (human); test: 1st screen, 10 nM Ab

Binder	Binding Signal (fold over 6E7 parental antibody) [1]	Binding Signal (fold over 6E7 parental antibody) [2]	Binding Signal (fold over 6E7 parental antibody) [3]
6E7 antibody affinity modulation variant V48 (antibody, V domains shown) VH: EVQLVQSGAEVKKPGESLKISCKGSGYSFGSYWIAWVRQMPGKGLEWMGIIYPGDSDVRYSPSFQGQVTISADKSISTAYLQWSSLKASDTAMYFCARMRTFYYDSSDYFDYWGQGTLVTVSS VL: DIQMTQSPSSVSASVGDRVTITCRASQGISSWLAWYQQKPGKAPKLLIYAASSLQTGVPSRFSGSGSGTDFTLTISSLQPEDFATYFCQQADSLPRTFGQGTKLEIK	2.54 fold	2.3 fold	2.42 fold
6E7 antibody affinity modulation variant V74 (antibody, V domains shown) VH: EVQLVQSGAEVKKPGESLKISCKGSGYSFASYWIAWVRQMPGKGLEWMGIIYPGDSDVRYSPSFQGQVTISADKSISTAYLQWSSLKASDTAMYFCARGRTFYYDSSDYFDYWGQGTLVTVSS VL: DIQMTQSPSSVSASVGDRVTITCRASQGISSWLAWYQQKPGKAPKLLIYAASSLQLGVPSRFSGSGSGTDFTLTISSLQPEDFATYFCQQADSFPRTFGQGTKLEIK	4.01 fold	2.54 fold	3.94 fold
6E7 antibody affinity modulation variant V64 (antibody, V domains shown) VH: EVQLVQSGAEVKKPGESLKISCKGSGYSFQSYWIAWVRQMPGKGLEWMGIIYPGDSDTRYSPSFQGQVTISADKSISTAYLQWSSLKASDTAMYFCARGRTFYYDSSDYFDYWGQGTLVTVSS VL: DIQMTQSPSSVSASVGDRVTITCRASQGISSWLAWYQQKPGKAPKLLIYAASSLANGVPSRFSGSGSGTDFTLTISSLQPEDFATYFCQQADSYPRTFGQGTKLEIK	5.48 fold	4.88 fold	5.41 fold
6E7 antibody affinity modulation variant V1 (antibody, V domains shown) VH: EVQLVQSGAEVKKPGESLKISCKGSGYSFTSSWIAWVRQMPGKGLEWMGIIYPGDSDTRYSPSFQGQVTISADKSISTAYLQWSSLKASDTAMYFCARSRTFYYDSSDYFDYWGQGTLVTVSS VL: DIQMTQSPSSVSASVGDRVTITCRASQGISSWLAWYQQKPGKAPKLLIYAASSLTNGVPSRFSGSGSGTDFTLTISSLQPEDFATYFCQQADSYPRTFGQGTKLEIK	1.92 fold	1.29 fold	1.68 fold
6E7 antibody affinity modulation variant V50 (antibody, V domains shown) VH: EVQLVQSGAEVKKPGESLKISCKGSGYSFGSYWIAWVRQMPGKGLEWMGVIYPGDSDTRYSPSFQGQVTISADKSISTAYLQWSSLKASDTAMYFCARQRTFYYDSSDYLDYWGQGTLVTVSS VL: DIQMTQSPSSVSASVGDRVTITCRASQGISSWLAWYQQKPGKAPKLLIYAASSRQNGVPSRFSGSGSGTDFTLTISSLQPEDFATYFCQQADSLPRTFGQGTKLEIK	4.16 fold	3.39 fold	4.1 fold
6E7 antibody affinity modulation variant V62 (antibody, V domains shown) VH: EVQLVQSGAEVKKPGESLKISCKGSGYSFGSYWIAWVRQMPGKGLEWMGIIYPGDSDTRYAPSFQGQVTISADKSISTAYLQWSSLKASDTAMYFCARQRTFYYDSSGYFDYWGQGTLVTVSS VL: DIQMTQSPSSVSASVGDRVTITCRASQGISSWLAWYQQKPGKAPKLLIYAASSLQRGVPSRFSGSGSGTDFTLTISSLQPEDFATYFCGQADSFPRTFGQGTKLEIK	2.89 fold	1.87 fold	2.49 fold
6E7 antibody affinity modulation variant V76 (antibody, V domains shown) VH: EVQLVQSGAEVKKPGESLKISCKGSGYSFGSYWIAWVRQMPGKGLEWMGIIYPGDSDTRYSPEFQGQVTISADKSISTAYLQWSSLKASDTAMYFCARQRTFYYDSSDYSDYWGQGTLVTVSS VL: DIQMTQSPSSVSASVGDRVTITCRASQGISSWLAWYQQKPGKAPKLLIYAASSLQKGVPSRFSGSGSGRDFTLTISSLQPEDFATYFCQQADSFPRTFGQGTKLEIK	4.93 fold	4.34 fold	4.57 fold
6E7 antibody affinity modulation variant V73 (antibody, V domains shown) VH: EVQLVQSGAEVKKPGESLKISCKGSGYSFGSYWIAWVRQMPGKGLEWMGIIYPGDSDTRYSPGFQGQVTISADKSISTAYLQWSSLKASDTAMYFCARGRTFYYDSSDYFDYWGQGTLVTVSS VL: DIQMTQSPSSVSASVGDRVTITCRASQGISSWLAWYQQKPGKAPKLLIYAASSRQNGVPSRFSGSGSGTDFTLTISSLQPEDFATYFCQQADSYPRTFGQGTKLEIK	5.44 fold	4.17 fold	5.12 fold
6E7 antibody affinity modulation variant V53 (antibody, V domains shown) VH: EVQLVQSGAEVKKPGESLKISCKGSGYSFTSYWIAWVRQMPGKGLEWMGIIYPGDSDTRYSPHFQGQVTISADKSISTAYLQWSSLKASDTAMYFCARQRTFYYDSSDYFDYWGQGTLVTVSS VL: DIQMTQSPSSVSASVGDRVTITCRASQGISSWLAWYQQKPGKAPKLLIYAASSLQNGVPSRFSGSGSGTDFTLTISSLQPEDFATYFCQQADSFPRTFGQGTKLEIK	1.17 fold	0.66 fold	1.25 fold
6E7 antibody affinity modulation variant V61 (antibody, V domains shown) VH: EVQLVQSGAEVKKPGESLKISCKGSGYSFSSYWIAWVRQMPGKGLEWMGIIYPGDSDTRYNPSFQGQVTISADKSISTAYLQWSSLKASDTAMYFCARGRTFYYDSSDYFDYWGQGTLVTVSS VL: DIQMTQSPSSVSASVGDRVTITCRASQGISSWLAWYQQKPGKAPKLLIYAASSLVNGVPSRFSGSGSGTDFTLTISSLQPEDFATYFCQQADSLPRTFGQGTKLEIK	5.22 fold	3.63 fold	5.08 fold

Continued, values first:

Binding Signal (fold over 6E7 parental antibody) [1]	Binding Signal (fold over 6E7 parental antibody) [2]	Binding Signal (fold over 6E7 parental antibody) [3]	Binder
6.58 fold	5.02 fold	6.51 fold	6E7 antibody affinity modulation variant V49 (antibody, V domains shown) VH: EVQLVQSGAEVKKPGESLKISCKGSGYSFNSYWIAWVRQMPGKGLEWMGTIYPGDSDTRLSPSFQGQVTISADKSISTAYLQWSSLKASDTAMYFCARSRTFYYDSSDYFDYWGQGTLVTVSS VL: DIQMTQSPSSVSASVGDRVTITCRASQGISSWLAWYQQKPGKAPKLLIYAASSRQNGVPSRFSGSGSGTDFTLTISSLQPEDFATYFCQQADSYPRTFGQGTKLEIK
2.75 fold	1.29 fold	2.05 fold	6E7 antibody affinity modulation variant V65 (antibody, V domains shown) VH: EVQLVQSGAEVKKPGESLKISCKGSGYSFTSYWIAWVRQMPGKGLEWMGIIYPGDSDTRYSPSFQGQVTISADKSISTAYLQWSSLKASDTAMYFCARSRTFYYDSSDYFDYWGQGTLVTVSS VL: DIQMTQSPSSVSASVGDRVTITCRASQGISSWLAWYQQKPGKAPKLLIYAASSLQNGVPSRFSGSGSGTDFTLTISSLQPEDFATYFCQQADSFPRTFGQGTKLEIK
2.9 fold	2.23 fold	2.55 fold	6E7 antibody affinity modulation variant V2 (antibody, V domains shown) VH: EVQLVQSGAEVKKPGESLKISCKGSGSSFTSYWIAWVRQMPGKGLEWMGIIYPGDGDTRYSPSFQGQVTISADKSISTAYLQWSSLKASDTAMYFCARSRTFYYDSSDYFDYWGQGTLVTVSS VL: DIQMTQSPSSVSASVGDRVTITCRASQGISSWLAWYQQKPGKAPKLLIYAASSRQNGVPSRFSGSGSGTDFTLTISSLQPEDFATYFCQQADRFPRTFGQGTKLEIK
4.52 fold	3.74 fold	4.64 fold	6E7 antibody affinity modulation variant V75 (antibody, V domains shown) VH: EVQLVQSGAEVKKPGESLKISCKGSGYSFTSYWIAWVRQMPGKGLEWMGIIYPGDSDTRYSPSFQGQVTISADKSISTAYLQWSSLKASDTAMYFCARGRTFYYDSSDYFDYWGQGTLVTVSS VL: DIQMTQSPSSVSASVGDRVTITCRASQGISSWLAWYQQKPGKAPKLLIYAASSLQAGVPSRFSGSGSGTDFTLTISSLQPEDFATYFCQQADSYPRTFGQGTKLEIK
3.63 fold	3.35 fold	3.26 fold	6E7 antibody affinity modulation variant V60 (antibody, V domains shown) VH: EVQLVQSGAEVKKPGESLKISCKGSGYHFTSYWIAWVRQMPGKGLEWMGIIYPGDSDVRYSPSFQGQVTISADKSISTAYLQWSSLKASDTAMYFCARQRTFYYDSSDYSDYWGQGTLVTVSS VL: DIQMTQSPSSVSASVGDRVTITCRASQGISSWLAWYQQKPGKAPKLLIYAASSLQRGVPSRFSGSGSGTDFTLTISSLQPEDFATYFCGQADSFPRTFGQGTKLEIK
3.18 fold	1.83 fold	2.81 fold	6E7 antibody affinity modulation variant V51 (antibody, V domains shown) VH: EVQLVQSGAEVKKPGESLKISCKGSGYSFTSYWIAWVRQMPGKGLEWMGIIYPGDSDVRYSPSFQGQVTISADKSISTAYLQWSSLKASDTAMYFCARGRTFYYDSSDYFDNWGQGTLVTVSS VL: DIQMTQSPSSVSASVGDRVTITCRASQGISSWLAWYQQKPGKAPKLLIYAASSRQNGVPSRFSGSGSGTDFTLTISSLQPEDFATYFCQQADSFPRTFGQGTKLEIK
3.71 fold	4.91 fold	3.76 fold	6E7 antibody affinity modulation variant V63 (antibody, V domains shown) VH: EVQLVQSGAEVKKPGESLKISCKGSGYSFRSYWIAWVRQMPGKGLEWMGIIYPGDSDTRYSPSFQGQVTISADKSISTAYLQWSSLKASDTAMYFCARSRTFYYDSSDYFDYWGQGTLVTVSS VL: DIQMTQSPSSVSASVGDRVTITCRASQGISSWLAWYQQKPGKAPKLLIYAASSLQRGVPSRFSGSGSGTDFTLTISSLQPEDFATYFCQQADRFPRTFGQGTKLEIK
